Reference: patent publication US20210388330A1
Each block holds one binder with its values, some of them ahead of it.

How the values were obtained:
[1] = biological target: soluble mannose-6-phosphate receptor (sM6PR); test: Biacore (SPR) analysis of binding to sM6PR, two KD values fitted
[2] = biological target: soluble mannose-6-phosphate receptor (sM6PR); test: Biacore (SPR), dpIDS compared with untreated IDS

KD1 [1]: 58.2 nM
KD2 [1]: 0.813 nM
B1: Recombinant iduronate-2-sulfatase (IDS), produced in human HT-1080 cells (enzyme)
chain: SETQANSTTDALNVLLIIVDDLRPSLGCYGDKLVRSPNIDQLASHSLLFQNAFAQQAVCAPSRVSFLTGRRPDTTRLYDFNSYWRVHAGNFSTIPQYFKENGYVTMSVGKVFHPGISSNHTDDSPYSWSFPPYHPSSEKYENTKTCRGPDGELHANLLCPVDVLDVPEGTLPDKQSTEQAIQLLEKMKTSASPFFLAVGYHKPHIPFRYPKEFQKLYPLENITLAPDPEVPDGLPPVAYNPWMDIRQREDVQALNISVPYGPIPVDFQRKIRQSYFASVSYLDTQVGRLLSALDDLQLANSTIIAFTSDHGWALGEHGEWAKYSNFDVATHVPLIFYVPGRTASLPEAGEKLFPYLDPFDSASQLMEPGRQSMDLVELVSLFPTLAGLAGLQVPPRCPVPSFHVELCREGKNLLKHFRFRDLEEDPYLPGNPRELIAYSQYPRPSDIPQWNSDKPSLKDIKIMGYSIRTIDYRYTVWVGFNPDEFLANFSDIHAGELYFVDSDPLQDHNMYNDSQGGDLFQLLMP
modifications: mannose-6-phosphate residues on N-linked oligomannose glycans; M6P content 2.56 pmol M6P/pmol protein (Table 3)

fold reduction of binding affinity of KD2 against IDS [2]: 7 fold
KD1 [1]: 32.1 nM
KD2 [1]: 5.94 nM
B2: CIP-treated dephosphorylated iduronate-2-sulfatase (dpIDS) (enzyme)
chain: B1 chain
modifications: dephosphorylated with acrylic bead-bound calf intestine alkaline phosphatase; M6P content reduced to 0.15 pmol M6P/pmol protein (Table 3)
